Some targets named below: HLA-A*02:03; HLA-A*02:06; HLA-A*68:02; HLA-B*51:01; HLA-A*02:01; HLA-A*02:17.
Holding throughout (assay): IEDB peptide-MHC binding, purified MHC/competitive/radioactivity; filed as Kd, often an IC50 or EC50 that approximates it; ≥ and ≤ were set here for values at or beyond the usual limits of such assays
The next experiment deals with HLA-A*02:02. As to conditions: source organism: Vaccinia virus WR.
The next experiment deals with HLA-A*03:01. As to conditions: source organism: Vaccinia virus WR.
Another experiment concerns the target HLA-A*11:01. As to conditions: source organism: Vaccinia virus WR.
In a further experiment the target is HLA-A*31:01. As to conditions: source organism: Vaccinia virus WR.
The next experiment has as its target HLA-A*33:01. As to conditions: source organism: Vaccinia virus WR.
Another experiment has as its target HLA-A*68:01. Conditions: source organism: Vaccinia virus WR.
The next experiment has as its target HLA-B*07:02. As to conditions: source organism: Vaccinia virus WR.
The next experiment concerns the target HLA-B*35:01. As to conditions: source organism: Vaccinia virus WR.
In another experiment the target is HLA-B*53:01. As to conditions: source organism: Vaccinia virus WR.
The target of the next experiment is HLA-B*54:01. Conditions: source organism: Vaccinia virus WR.
For the next experiment, the target named is HLA-B*57:01. Conditions: source organism: Dengue virus 1 Brazil/97-11/1997.
The next experiment deals with HLA-A*30:01. Conditions: source organism: Dengue virus 2 Peru/IQT2913/1996.
The next experiment has as its target HLA-A*32:01. Conditions: source organism: Dengue virus 1 Brazil/97-11/1997.
Another experiment addresses HLA-B*08:01. As to conditions: source organism: Dengue virus 2 Jamaica/1409/1983.
A further experiment concerns the target HLA-B*15:01. As to conditions: source organism: Dengue virus 2 Jamaica/1409/1983.
The mark [1] stands for this setting: source organism: Vaccinia virus WR.
The mark [2] stands for this setting: source organism: Dengue virus 1 Singapore/S275/1990.
Where [3] appears, read: source organism: Dengue virus 2 Thailand/NGS-C/1944.
Setting [4] is: source organism: Dengue virus 2 Peru/IQT2913/1996.
Where [5] appears, read: source organism: Dengue virus 1 Brazil/97-11/1997.
The mark [6] stands for this setting: source organism: Dengue virus 2 Jamaica/1409/1983.
[7] abbreviates: source organism: Dengue virus 4 Philippines/H241/1956.
[8] abbreviates: source organism: Dengue virus 3 Martinique/1243/1999.
Where [9] appears, read: source organism: Dengue virus 3 China/80-2/1980.
The mark [10] stands for this setting: source organism: Dengue virus 3 Sri Lanka/1266/2000.

With YIIRVTTEL, the Kd with HLA-A*02:02 is 0.856 nM; with HLA-A*02:03 (setting [1]), 17.6 nM; in the experiment with HLA-A*02:06 (setting [1]), 18.1 nM; with HLA-A*03:01 it was no less than 78000 nM; with HLA-A*11:01, no less than 77900 nM; in the experiment with HLA-A*31:01, no less than 77900 nM. In addition, the Kd in the experiment with HLA-A*33:01 is no less than 77700 nM; with HLA-A*68:01 it was no less than 64600 nM; with HLA-A*68:02 (setting [1]), 147 nM; with HLA-B*07:02, 521 nM; with HLA-B*35:01, 14600 nM; in the experiment with HLA-B*51:01 (setting [1]) it was 14600 nM. Further, the Kd with HLA-B*53:01 was no less than 36700 nM; with HLA-B*54:01, no less than 78100 nM.
VLSIVSLFPL: the Kd stood at 8.47 nM in the experiment with HLA-A*02:01 (setting [2]), 8 nM with HLA-A*02:17 (setting [2]) and 108 nM with HLA-B*57:01.
For FSLGLLCISI, the dissociation constant Kd in the experiment with HLA-A*02:01 (setting [2]) is 7.58 nM; with HLA-A*02:06 (setting [2]), 2.6 nM; with HLA-A*02:17 (setting [2]) it was 942 nM; in the experiment with HLA-B*51:01 (setting [2]) it was no less than 40800 nM.
As to GMIIMLIPTV, the Kd with HLA-A*02:01 (setting [3]) turned out to be 70.9 nM; with HLA-A*02:03 (setting [4]), 4.49 nM; with HLA-A*02:06 (setting [4]), 94.7 nM; in the experiment with HLA-A*02:17 (setting [3]) it was 6590 nM; with HLA-A*30:01, 12600 nM.
In the case of IMAIGIVSI, the Kd stood at 13.2 nM in the experiment with HLA-A*02:01 (setting [5]), 13.4 nM with HLA-A*02:03 (setting [5]), 699 nM in the experiment with HLA-A*02:17 (setting [5]) and 77.6 nM with HLA-A*32:01.
Turning to LMMRTTWAL, the Kd in the experiment with HLA-A*02:01 (setting [6]) was 1.35 nM; with HLA-A*02:03 (setting [6]), 0.47 nM; with HLA-A*02:06 (setting [6]) it was 8.05 nM; with HLA-A*02:17 (setting [6]), 35.9 nM; with HLA-B*08:01 it was 1.32 nM; with HLA-B*15:01 it was 0.12 nM.
As to TMFGGVSWMV, the dissociation constant (Kd) with HLA-A*02:01 (setting [7]) is 4.46 nM; with HLA-A*02:03 (setting [7]), 65.1 nM; in the experiment with HLA-A*02:06 (setting [7]), 2.25 nM; with HLA-A*02:17 (setting [7]), 338 nM; with HLA-A*68:02 (setting [7]), 5.34 nM.
Regarding WMTTEDMLSV, the dissociation constant Kd was determined as 18.8 nM in the experiment with HLA-A*02:01 (setting [2]), 8.93 nM with HLA-A*02:03 (setting [5]), 10.6 nM in the experiment with HLA-A*02:06 (setting [5]) and 593 nM with HLA-A*02:17 (setting [2]).
For YTMCSGKFSI, the Kd with HLA-A*02:01 (setting [7]) was found to be 79.8 nM; in the experiment with HLA-A*02:17 (setting [7]), 538 nM; with HLA-A*68:02 (setting [7]), 1.45 nM.
On to QLWATLLSL, for which the dissociation constant Kd was determined as 1.16 nM with HLA-A*02:01 (setting [2]) and 50.6 nM with HLA-A*02:17 (setting [2]).
For VILFIMFMLI, the Kd worked out at 722 nM with HLA-A*02:02; 769 nM in the experiment with HLA-A*02:03 (setting [1]); 1410 nM in the experiment with HLA-A*02:06 (setting [1]); 81 nM in the experiment with HLA-A*03:01; 353 nM with HLA-A*11:01; 128 nM with HLA-A*31:01. Further, the Kd with HLA-A*33:01 was determined as 514 nM; in the experiment with HLA-A*68:01, 113 nM; in the experiment with HLA-A*68:02 (setting [1]), 1080 nM; with HLA-B*07:02, 5480 nM; with HLA-B*51:01 (setting [1]) it was 7570 nM; with HLA-B*53:01 it was 1700 nM. In addition, the Kd in the experiment with HLA-B*54:01 turned out to be 804 nM.
With TIMAAILAYT, the Kd was 33.4 nM with HLA-A*02:01 (setting [6]), 9.23 nM with HLA-A*02:03 (setting [6]), 12200 nM with HLA-A*02:17 (setting [6]) and 86.8 nM in the experiment with HLA-A*68:02 (setting [6]).
As for ILALFLAHYI, the dissociation constant (Kd) with HLA-A*02:03 (setting [8]) is 33.5 nM; in the experiment with HLA-A*02:17 (setting [9]), 266 nM.
As for TLMLLALIAV, the equilibrium dissociation constant (Kd) with HLA-A*02:01 (setting [2]) came out at 7.52 nM; with HLA-A*02:03 (setting [5]), 29.1 nM; with HLA-A*02:06 (setting [5]), 52.7 nM; with HLA-A*02:17 (setting [2]), 9100 nM.
On to SVLLWMASV, for which the values for the Kd with HLA-A*02:01 (setting [2]), with HLA-A*02:06 (setting [2]) and in the experiment with HLA-A*02:17 (setting [2]) were 6.33 nM, 15.7 nM and 20.9 nM, respectively.
For the sequence MVIENGILKK, the dissociation constant (Kd) in the experiment with HLA-A*02:01 (setting [1]) was no less than 69400 nM; with HLA-A*02:02, no less than 70000 nM; with HLA-A*02:03 (setting [1]), no less than 70400 nM; in the experiment with HLA-A*02:06 (setting [1]), no less than 69800 nM; in the experiment with HLA-A*03:01 it was 38.3 nM; with HLA-A*11:01, 12.3 nM. In addition, the Kd in the experiment with HLA-A*31:01 was 4860 nM; with HLA-A*33:01, no less than 35100 nM; with HLA-A*68:01, 14.9 nM; with HLA-A*68:02 (setting [1]) it was 11200 nM; in the experiment with HLA-B*07:02, no less than 69600 nM; with HLA-B*35:01 it was no less than 30300 nM. Besides, the dissociation constant (Kd) with HLA-B*51:01 (setting [1]) was no less than 69600 nM; with HLA-B*53:01, no less than 69900 nM; with HLA-B*54:01 it was no less than 69900 nM.
Regarding ILAGVSLLPV, the Kd came out at 4.65 nM with HLA-A*02:01 (setting [10]), 8.16 nM with HLA-A*02:03 (setting [8]), 1.59 nM in the experiment with HLA-A*02:06 (setting [8]) and 1680 nM with HLA-A*02:17 (setting [10]).
On to IPFIAYFVLM, for which the equilibrium dissociation constant (Kd) in the experiment with HLA-A*02:01 (setting [1]) was determined as 1330 nM; in the experiment with HLA-A*02:02 it was 3190 nM; with HLA-A*02:03 (setting [1]) it was 2050 nM; with HLA-A*02:06 (setting [1]), 7870 nM; with HLA-A*03:01, 654 nM; in the experiment with HLA-A*11:01, 4520 nM. The dissociation constant (Kd) is 652 nM with HLA-A*31:01; 1470 nM with HLA-A*33:01; 1480 nM with HLA-A*68:01; 9330 nM in the experiment with HLA-A*68:02 (setting [1]); no less than 39600 nM with HLA-B*07:02; 1210 nM in the experiment with HLA-B*35:01. The Kd in the experiment with HLA-B*51:01 (setting [1]) is 2230 nM; in the experiment with HLA-B*53:01, 1300 nM; with HLA-B*54:01, 2000 nM.
IILEFFLIV: the Kd with HLA-A*02:06 (setting [6]) is 0.384 nM; with HLA-A*02:17 (setting [6]) it was 89.8 nM.
Turning to MLLILCVTQV, the dissociation constant (Kd) was found to be 4.15 nM in the experiment with HLA-A*02:01 (setting [6]), 18.2 nM in the experiment with HLA-A*02:03 (setting [6]), 7.91 nM with HLA-A*02:06 (setting [6]) and 158 nM with HLA-A*02:17 (setting [6]).
Take ILWENNIKL: in the experiment with HLA-A*02:17 (setting [9]), the Kd turned out to be 91.1 nM.

A word on the Kd: it is the concentration at which binding is half-saturated.

The values above are taken from the Immune Epitope Database (IEDB).
